PMC5035970

Tests used:
[1] = tested on: RSV Gag∆PR (Rous sarcoma virus, Prague C strain); assay: fluorescence anisotropy
[2] = tested on: RSV Gag∆PR (Rous sarcoma virus, Prague C strain); assay: FA salt titration
[3] = tested on: R155H (Rous sarcoma virus (Prague C) / HIV-1 chimera); assay: FA salt titration
[4] = tested on: HIV-1 Gag∆p6 (HIV-1); assay: FA salt titration
[5] = tested on: H132R (HIV-1 / Rous sarcoma virus chimera); assay: FA salt titration
[6] = tested on: HIV-1 Gag∆p6 (HIV-1); assay: fluorescence anisotropy
[7] = tested on: H132R (HIV-1 / Rous sarcoma virus chimera); assay: fluorescence anisotropy
[8] = tested on: RSV CANC (Rous sarcoma virus, Prague C strain); assay: FA salt titration

Row | Substance | Kd [1] | Kd [2] | Kd [3] | Kd [4] | Kd [5] | Kd [6] | Kd [7] | Kd [8]
1 | HIV-1 TARpolyA | 18 nM | 40 mM | 2600 mM | 560 mM | 290 mM | – | – | –
2 | HIV-1 Ψ-WT | 14 nM | 32 mM | 0.031 mM | 0.036 mM | 19 mM | – | – | –
3 | RSV MΨ A197G | – | 0.047 mM | – | – | – | – | – | –
4 | RSV MΨ GG to CC | – | 0.49 mM | – | – | – | – | – | –
5 | RSV MΨ UGCG to GAGA | – | 0.012 mM | – | – | – | – | – | –
6 | RSV MΨ WT | – | 0.071 mM | 0.067 mM | 0.055 mM | 0.072 mM | 14 nM | 13 nM | 0.013 mM
